Reference: the supplement of paper PMC10065799, “High-throughput profiling of sequence recognition by tyrosine kinases and SH2 domains using bacterial peptide display” (eLife, 2023)

Key:
AncSZ = assay: phosphorylation enrichment, bacterial display (enrichment ratio); higher = better substrate or ligand; peptides without Tyr show the background
EPHB1 = EPHB1 (UniProt P54762); assay: as above
EPHB2 = EPHB2 (UniProt P29323); assay: as above
FGFR1 = FGFR1 (UniProt P11362); assay: as above
FGFR3 = FGFR3 (UniProt P22607); assay: as above
Fer (mouse) = assay: as above
Fes = Fes (UniProt P07332); assay: as above
Fes, sequence (P07332 whole entry, looked up): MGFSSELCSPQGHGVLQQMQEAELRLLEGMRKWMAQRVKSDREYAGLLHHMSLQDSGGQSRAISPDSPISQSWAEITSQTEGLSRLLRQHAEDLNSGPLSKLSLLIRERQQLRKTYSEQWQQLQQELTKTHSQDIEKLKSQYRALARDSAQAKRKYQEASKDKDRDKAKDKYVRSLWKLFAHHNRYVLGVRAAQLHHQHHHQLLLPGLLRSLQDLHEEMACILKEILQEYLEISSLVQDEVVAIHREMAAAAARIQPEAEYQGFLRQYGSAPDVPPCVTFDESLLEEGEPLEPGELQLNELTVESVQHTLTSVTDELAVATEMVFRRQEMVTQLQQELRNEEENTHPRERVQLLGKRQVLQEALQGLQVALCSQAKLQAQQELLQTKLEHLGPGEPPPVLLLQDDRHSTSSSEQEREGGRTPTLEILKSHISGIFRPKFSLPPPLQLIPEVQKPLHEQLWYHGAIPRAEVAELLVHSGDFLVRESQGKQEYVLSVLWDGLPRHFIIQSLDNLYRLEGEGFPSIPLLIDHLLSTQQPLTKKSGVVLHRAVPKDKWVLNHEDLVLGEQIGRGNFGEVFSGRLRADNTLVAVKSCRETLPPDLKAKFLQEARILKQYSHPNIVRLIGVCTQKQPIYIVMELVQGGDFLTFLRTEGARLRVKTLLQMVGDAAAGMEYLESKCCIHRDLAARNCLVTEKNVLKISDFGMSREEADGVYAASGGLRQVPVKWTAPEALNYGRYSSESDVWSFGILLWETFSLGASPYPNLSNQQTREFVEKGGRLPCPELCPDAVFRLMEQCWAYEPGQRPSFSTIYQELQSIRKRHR

Fyn = Fyn (UniProt P06241); assay: as above
Fyn, sequence (P06241 whole entry, looked up): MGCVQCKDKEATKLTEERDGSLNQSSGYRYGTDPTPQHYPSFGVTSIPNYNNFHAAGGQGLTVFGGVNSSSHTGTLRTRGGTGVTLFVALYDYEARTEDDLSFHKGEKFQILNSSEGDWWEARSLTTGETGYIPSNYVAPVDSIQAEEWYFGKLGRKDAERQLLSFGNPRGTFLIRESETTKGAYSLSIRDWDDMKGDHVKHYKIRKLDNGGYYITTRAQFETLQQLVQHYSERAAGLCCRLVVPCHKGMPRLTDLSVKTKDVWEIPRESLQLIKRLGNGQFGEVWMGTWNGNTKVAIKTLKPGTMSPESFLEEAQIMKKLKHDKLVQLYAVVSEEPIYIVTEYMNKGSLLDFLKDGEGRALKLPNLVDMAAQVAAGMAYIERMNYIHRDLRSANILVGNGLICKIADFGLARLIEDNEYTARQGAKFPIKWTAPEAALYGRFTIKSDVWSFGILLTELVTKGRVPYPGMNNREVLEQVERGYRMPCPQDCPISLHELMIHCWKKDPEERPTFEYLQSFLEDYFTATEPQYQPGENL

Hck = Hck (UniProt P08631); assay: as above
Hck, sequence (P08631 whole entry, looked up): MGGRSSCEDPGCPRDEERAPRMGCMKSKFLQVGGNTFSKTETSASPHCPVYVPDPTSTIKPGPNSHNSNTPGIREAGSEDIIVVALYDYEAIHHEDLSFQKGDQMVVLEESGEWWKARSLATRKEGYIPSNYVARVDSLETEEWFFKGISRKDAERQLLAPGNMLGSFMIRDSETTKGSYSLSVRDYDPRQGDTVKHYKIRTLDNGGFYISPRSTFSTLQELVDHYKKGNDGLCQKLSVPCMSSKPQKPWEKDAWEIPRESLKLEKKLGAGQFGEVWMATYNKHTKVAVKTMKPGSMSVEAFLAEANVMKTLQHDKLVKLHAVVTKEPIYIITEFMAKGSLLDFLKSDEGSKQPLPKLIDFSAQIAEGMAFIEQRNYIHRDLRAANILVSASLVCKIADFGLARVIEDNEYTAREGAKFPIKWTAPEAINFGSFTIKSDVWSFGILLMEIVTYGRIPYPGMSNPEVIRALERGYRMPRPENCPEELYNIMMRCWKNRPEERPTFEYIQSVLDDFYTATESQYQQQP

Jak2 = Jak2 (UniProt O60674); assay: as above
MERTK = MERTK (UniProt Q12866); assay: as above
MERTK, sequence (Q12866 whole entry, looked up): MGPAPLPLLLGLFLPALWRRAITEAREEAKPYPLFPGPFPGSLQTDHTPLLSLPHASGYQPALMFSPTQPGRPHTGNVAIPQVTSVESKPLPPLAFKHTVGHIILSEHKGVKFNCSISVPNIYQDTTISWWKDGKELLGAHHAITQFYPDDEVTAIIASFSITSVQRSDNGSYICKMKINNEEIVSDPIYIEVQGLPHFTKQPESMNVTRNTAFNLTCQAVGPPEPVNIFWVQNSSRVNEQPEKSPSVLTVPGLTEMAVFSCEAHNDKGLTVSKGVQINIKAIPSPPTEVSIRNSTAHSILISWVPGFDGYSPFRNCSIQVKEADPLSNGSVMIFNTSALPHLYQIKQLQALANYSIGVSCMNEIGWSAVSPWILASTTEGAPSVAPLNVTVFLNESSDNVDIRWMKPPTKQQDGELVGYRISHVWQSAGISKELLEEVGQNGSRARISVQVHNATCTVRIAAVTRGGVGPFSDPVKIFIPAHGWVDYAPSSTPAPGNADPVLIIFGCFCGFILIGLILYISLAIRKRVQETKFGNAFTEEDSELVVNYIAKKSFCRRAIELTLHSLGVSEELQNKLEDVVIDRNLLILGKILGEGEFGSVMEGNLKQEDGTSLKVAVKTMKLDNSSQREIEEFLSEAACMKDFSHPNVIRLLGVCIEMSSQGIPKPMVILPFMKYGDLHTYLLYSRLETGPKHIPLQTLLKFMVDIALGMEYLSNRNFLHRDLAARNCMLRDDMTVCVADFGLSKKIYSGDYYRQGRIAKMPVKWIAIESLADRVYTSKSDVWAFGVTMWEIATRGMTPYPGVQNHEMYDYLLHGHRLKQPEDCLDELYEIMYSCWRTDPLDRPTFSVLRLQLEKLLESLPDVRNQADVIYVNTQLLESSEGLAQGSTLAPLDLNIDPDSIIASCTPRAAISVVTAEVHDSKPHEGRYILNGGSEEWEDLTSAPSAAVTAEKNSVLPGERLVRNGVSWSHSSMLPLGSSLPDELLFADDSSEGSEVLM

c-Abl (mouse) = assay: as above
c-Src = assay: as above
Grb2 SH2 = Grb2 SH2 (UniProt P62993); assay: SH2 binding enrichment of the phosphorylated peptide, bacterial display (enrichment ratio); higher = better substrate or ligand; peptides without Tyr show the background
Grb2 SH2, sequence (P62993 whole entry, looked up): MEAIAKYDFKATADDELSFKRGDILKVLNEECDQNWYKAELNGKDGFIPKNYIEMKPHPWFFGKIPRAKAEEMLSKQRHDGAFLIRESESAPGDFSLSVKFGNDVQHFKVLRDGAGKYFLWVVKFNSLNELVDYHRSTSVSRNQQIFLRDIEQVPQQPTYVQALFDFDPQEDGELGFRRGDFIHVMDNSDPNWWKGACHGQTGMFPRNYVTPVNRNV

SHP2-C SH2 = assay: as above
c-Src SH2 = assay: as above
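Wherever SH2 binding enrichment of the phosphorylated peptide, bacterial display is given: peptide library displayed on the E. coli surface as eCPX fusions, selected cells deep-sequenced, score is each peptide's frequency after selection divided by its frequency in the input.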
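Wherever phosphorylation enrichment, bacterial display is given: 11-residue human phosphosite peptides and single-mutation variants displayed on the E. coli surface, counted by deep sequencing, each peptide's frequency after selection divided by its frequency in the unselected input library; frequency after pTyr selection over input frequency; kinase dosed for 20-30% of maximal phosphorylation in three min.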

FGFR1, sequence (P11362 whole entry, looked up): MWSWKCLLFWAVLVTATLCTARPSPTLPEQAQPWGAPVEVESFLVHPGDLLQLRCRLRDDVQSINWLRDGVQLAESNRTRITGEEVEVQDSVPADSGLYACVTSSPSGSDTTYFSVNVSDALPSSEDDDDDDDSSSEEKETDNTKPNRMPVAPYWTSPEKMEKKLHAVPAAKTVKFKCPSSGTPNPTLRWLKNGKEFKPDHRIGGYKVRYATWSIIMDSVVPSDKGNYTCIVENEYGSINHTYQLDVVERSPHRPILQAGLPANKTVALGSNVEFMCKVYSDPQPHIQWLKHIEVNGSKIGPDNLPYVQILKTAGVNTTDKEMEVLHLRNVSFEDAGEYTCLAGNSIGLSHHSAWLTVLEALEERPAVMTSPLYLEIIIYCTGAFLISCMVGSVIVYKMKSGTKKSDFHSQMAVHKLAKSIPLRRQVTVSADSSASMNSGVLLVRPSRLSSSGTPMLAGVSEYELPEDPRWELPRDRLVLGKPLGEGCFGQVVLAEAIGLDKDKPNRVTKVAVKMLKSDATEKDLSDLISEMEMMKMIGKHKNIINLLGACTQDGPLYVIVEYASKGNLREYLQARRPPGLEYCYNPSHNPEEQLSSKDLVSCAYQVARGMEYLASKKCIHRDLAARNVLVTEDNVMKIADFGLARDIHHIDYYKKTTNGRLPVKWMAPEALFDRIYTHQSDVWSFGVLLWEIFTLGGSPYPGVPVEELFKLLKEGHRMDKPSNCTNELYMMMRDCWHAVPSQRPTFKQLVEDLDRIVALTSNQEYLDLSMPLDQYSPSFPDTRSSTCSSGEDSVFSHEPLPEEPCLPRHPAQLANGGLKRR
EPHB2, sequence (P29323 whole entry, looked up): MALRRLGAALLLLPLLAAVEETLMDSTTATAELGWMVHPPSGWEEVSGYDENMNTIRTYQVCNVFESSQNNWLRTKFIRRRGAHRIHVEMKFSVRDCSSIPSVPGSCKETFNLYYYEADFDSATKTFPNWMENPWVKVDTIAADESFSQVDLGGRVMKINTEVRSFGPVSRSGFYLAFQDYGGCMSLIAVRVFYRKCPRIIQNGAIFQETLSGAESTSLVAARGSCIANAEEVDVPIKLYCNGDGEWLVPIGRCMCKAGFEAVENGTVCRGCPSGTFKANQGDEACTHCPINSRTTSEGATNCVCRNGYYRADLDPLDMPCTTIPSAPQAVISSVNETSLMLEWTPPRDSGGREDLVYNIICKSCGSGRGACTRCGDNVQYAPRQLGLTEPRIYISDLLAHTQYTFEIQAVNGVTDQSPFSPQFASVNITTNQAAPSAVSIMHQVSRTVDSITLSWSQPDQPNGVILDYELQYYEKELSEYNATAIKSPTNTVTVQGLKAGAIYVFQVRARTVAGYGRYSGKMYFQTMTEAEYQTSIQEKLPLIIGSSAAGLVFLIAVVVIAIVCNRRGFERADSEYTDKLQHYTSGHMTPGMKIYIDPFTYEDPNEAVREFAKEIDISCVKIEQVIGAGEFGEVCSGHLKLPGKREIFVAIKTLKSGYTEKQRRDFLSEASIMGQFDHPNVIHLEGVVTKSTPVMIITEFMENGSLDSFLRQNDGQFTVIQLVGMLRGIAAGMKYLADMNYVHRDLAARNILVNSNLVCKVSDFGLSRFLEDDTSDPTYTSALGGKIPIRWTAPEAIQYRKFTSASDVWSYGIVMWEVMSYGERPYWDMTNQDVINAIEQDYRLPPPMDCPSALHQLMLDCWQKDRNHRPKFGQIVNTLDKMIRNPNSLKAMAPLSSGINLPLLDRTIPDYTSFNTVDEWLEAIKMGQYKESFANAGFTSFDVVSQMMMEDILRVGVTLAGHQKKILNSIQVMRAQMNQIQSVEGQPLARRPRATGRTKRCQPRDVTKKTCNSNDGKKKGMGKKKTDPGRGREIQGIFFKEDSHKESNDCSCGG

Sequence | phosphorylation enrichment (AncSZ) | phosphorylation enrichment (EPHB1) | phosphorylation enrichment (EPHB2) | phosphorylation enrichment (FGFR1) | phosphorylation enrichment (FGFR3) | phosphorylation enrichment (Fer (mouse)) | phosphorylation enrichment (Fes) | phosphorylation enrichment (Fyn) | phosphorylation enrichment (Hck) | phosphorylation enrichment (Jak2) | phosphorylation enrichment (MERTK) | phosphorylation enrichment (c-Abl (mouse)) | phosphorylation enrichment (c-Src) | SH2 binding enrichment (Grb2 SH2) | SH2 binding enrichment (SHP2-C SH2) | SH2 binding enrichment (c-Src SH2)
AALKLYHVSDS [VIL1_Y256] | 0.815 | 0.493 | 0.558 | 0.511 | 0.672 | 0.427 | 0.766 | 0.561 | 0.623 | 0.635 | 0.847 | 0.537 | 0.417 | 0.613 | 1.18 | 0.434
ACEVLYNIAFM [NCF2_Y125] | 2.01 | 0.983 | 0.859 | 0.976 | 1.49 | 5.68 | 1.53 | 1.97 | 2.45 | 1.11 | 2.03 | 2.57 | 2.17 | 0.768 | 0.592 | 0.434
ADCRYYAFPQM [GAMT_Y223] | 4.46 | 9.71 | 10.8 | 11 | 8.74 | 8.45 | 1.33 | 2.75 | 3.1 | 5.86 | 9.72 | 7.97 | 3.76 | 0.862 | 0.656 | 1.84
ADLAKYICENQ [ALB_Y287] | 0.979 | 0.672 | 0.63 | 0.485 | 0.788 | 0.459 | 1.13 | 0.461 | 0.627 | 1.09 | 0.386 | 0.83 | 0.505 | 0.868 | 0.754 | 0.607
ADNQRYAFMPL [TMEM87B_Y460_N456D] | 0.728 | 1.07 | 0.663 | 0.733 | 0.641 | 0.502 | 0.812 | 0.503 | 0.628 | 0.673 | 6.67 | 0.781 | 0.452 | 1.02 | 0.649 | 2.15
AEEKEYHAEGG [EGFR_Y869] | 1.09 | 0.623 | 0.593 | 0.474 | 0.596 | 0.572 | 1.05 | 0.536 | 0.451 | 0.908 | 0.403 | 0.653 | 0.486 | 0.924 | 0.748 | 0.471
AEKPKYQISNI [TJP1_Y1602_N1605S] | 0.896 | 0.286 | 0.376 | 0.358 | 0.409 | 0.377 | 0.544 | 0.372 | 0.41 | 0.401 | 0.333 | 0.54 | 0.36 | 0.739 | 0.516 | 0.503
AEPDIYQEKLS [USP54_Y1233] | 0.994 | 0.531 | 0.508 | 0.457 | 0.623 | 0.485 | 1.08 | 0.58 | 0.702 | 1.01 | 0.405 | 0.692 | 0.568 | 1.19 | 0.785 | 0.674
AEPNIYQEKLS [USP54_Y1233_D1231N] | 0.763 | 0.401 | 0.462 | 0.442 | 0.505 | 0.34 | 0.748 | 0.727 | 0.778 | 0.948 | 0.339 | 0.802 | 0.679 | 1.12 | 0.916 | 0.808
AFLQTYSHEVS [PCDHGA5_Y753] | 0.845 | 0.584 | 0.64 | 0.442 | 0.683 | 0.531 | 0.971 | 0.602 | 0.551 | 0.957 | 0.585 | 0.518 | 0.812 | 1.01 | 0.873 | 0.57
AGADGYDYLAP [FOXL2_Y186_G187D] | 3.5 | 0.585 | 0.587 | 0.611 | 0.783 | 0.62 | 0.99 | 0.534 | 0.903 | 0.997 | 0.647 | 0.655 | 0.388 | 0.89 | 0.478 | 4.34
AKKIKYFEGVS [PRKDC_Y682] | 0.429 | 0.324 | 0.44 | 0.295 | 0.332 | 0.42 | 0.547 | 0.321 | 0.447 | 0.427 | 0.383 | 0.328 | 0.387 | 0.79 | 0.83 | 0.479
AKKVFYMIETR [SHH_Y253_V254M] | 1.15 | 0.606 | 0.622 | 0.448 | 0.881 | 0.561 | 1.24 | 0.439 | 0.444 | 1.02 | 0.386 | 0.673 | 0.472 | 1.46 | 1.01 | 1.06
AKKVFYVIETR [SHH_Y253] | 1.12 | 0.569 | 0.582 | 0.542 | 0.765 | 0.401 | 1.26 | 0.465 | 0.422 | 1.01 | 0.361 | 0.627 | 0.412 | 1.2 | 1.03 | 0.775
AKRKNYAPVAM [CFAP47_Y557] | 0.562 | 0.648 | 0.425 | 0.654 | 0.371 | 0.302 | 0.521 | 0.393 | 0.392 | 0.341 | 0.468 | 0.57 | 0.432 | 1.11 | 1.26 | 1.05
ALCHYYKLNII [ETV6_Y402_R399C] | 1.59 | 0.97 | 0.738 | 5.97 | 5.13 | 0.615 | 1.62 | 0.798 | 1.09 | 3.3 | 2.26 | 2 | 1.54 | 0.895 | 1.34 | 0.855
APSGNYVACGG [GNB1_Y111] | 1.13 | 0.822 | 0.691 | 0.478 | 1.07 | 0.513 | 0.788 | 0.363 | 0.429 | 0.571 | 0.437 | 0.584 | 0.301 | 0.956 | 0.804 | 1.42

Sequence | phosphorylation enrichment (AncSZ) | phosphorylation enrichment (EPHB1) | phosphorylation enrichment (EPHB2) | phosphorylation enrichment (FGFR1) | phosphorylation enrichment (FGFR3) | phosphorylation enrichment (Fer (mouse)) | phosphorylation enrichment (Fes) | phosphorylation enrichment (Fyn) | phosphorylation enrichment (Hck) | phosphorylation enrichment (Jak2) | phosphorylation enrichment (MERTK) | phosphorylation enrichment (c-Abl (mouse)) | phosphorylation enrichment (c-Src) | SH2 binding enrichment (Grb2 SH2) | SH2 binding enrichment (SHP2-C SH2) | SH2 binding enrichment (c-Src SH2)
APSHAYHRGVL [ANO1_Y981_G983R] | 0.507 | 0.363 | 0.355 | 0.395 | 0.472 | 0.411 | 0.583 | 0.424 | 0.385 | 0.534 | 0.38 | 0.51 | 0.426 | 0.988 | 0.899 | 0.679
APTSGYQEFVH [IL4R_Y575] | 0.741 | 0.36 | 0.535 | 0.539 | 0.51 | 0.401 | 0.764 | 0.545 | 0.503 | 0.611 | 0.426 | 0.524 | 0.419 | 0.826 | 0.668 | 2.99
AQINLYQDVML [ZNF806_Y33] | 1.25 | 15 | 8.39 | 1.14 | 1.29 | 15.4 | 2.83 | 1.15 | 2.05 | 1.01 | 2.17 | 0.928 | 1.05 | 0.886 | 0.68 | 0.685
AQMAMYFWEMS [TRPM4_Y577_G582S] | 1.86 | 1.09 | 1.05 | 3.42 | 2.88 | 0.9 | 1.73 | 1.15 | 1.18 | 1.61 | 2.5 | 1.14 | 2.52 | 1.15 | 1.08 | 0.852
ARKCKYFKKHE [NFIX_Y40_R38C] | 0.619 | 0.452 | 0.403 | 0.428 | 0.565 | 0.443 | 0.974 | 0.463 | 0.48 | 0.596 | 0.486 | 0.75 | 0.545 | 1.1 | 0.847 | 0.646
ASELGYVFQAI [UROD_Y133] | 1.03 | 0.471 | 0.566 | 0.483 | 0.749 | 0.386 | 0.852 | 0.397 | 0.378 | 0.924 | 0.264 | 0.545 | 0.423 | 0.986 | 0.475 | 0.771
ASLLPYFPAIM [IPO4_Y518] | 0.782 | 0.479 | 0.576 | 0.537 | 0.694 | 0.532 | 0.938 | 0.544 | 0.484 | 0.802 | 0.364 | 0.626 | 0.457 | 1.15 | 0.806 | 0.672
ASTDYYKRGDF [PDHA1_Y243] | 0.685 | 0.287 | 0.409 | 0.436 | 0.501 | 0.321 | 0.71 | 0.368 | 0.465 | 0.754 | 0.369 | 0.559 | 0.5 | 0.767 | 0.753 | 0.44
ATGGFYSYGGG [KRT24_Y120] | 0.906 | 0.881 | 0.885 | 0.506 | 0.659 | 4.4 | 1.11 | 2.39 | 1.8 | 0.858 | 11.6 | 0.763 | 1.26 | 0.82 | 0.871 | 0.858
ATHSRYRLNDF [CLDN14_Y233_G232R_YF] | 0.419 | 0.296 | 0.337 | 0.307 | 0.308 | 0.349 | 0.706 | 0.329 | 0.449 | 0.413 | 0.391 | 0.546 | 0.36 | 0.935 | 0.825 | 0.674
ATLDVYNPFET [SCAMP3_Y41] | 1.09 | 0.629 | 0.537 | 0.52 | 0.652 | 0.581 | 1.42 | 2.49 | 2.15 | 1.37 | 0.556 | 0.838 | 3.24 | 0.872 | 0.524 | 0.536
AVNDFYAAKKT [CCDC178_Y422] | 0.629 | 0.464 | 0.372 | 0.648 | 0.551 | 0.381 | 0.703 | 0.508 | 0.5 | 0.548 | 0.449 | 0.61 | 0.429 | 1.07 | 0.87 | 0.457
AVRVFYRKCPH [EPHB2_Y194_R199H] | 1.22 | 0.588 | 0.711 | 0.563 | 0.668 | 0.452 | 1.08 | 0.496 | 0.604 | 0.804 | 0.485 | 1.14 | 0.424 | 0.646 | 0.497 | 0.509
CEHFSYFGMKA [SLC15A2_Y60_R57H_YF] | 0.879 | 0.555 | 0.516 | 1.61 | 0.902 | 0.452 | 0.845 | 0.379 | 0.444 | 3.82 | 0.469 | 0.605 | 0.673 | 0.801 | 0.545 | 0.604
CLAKMYYSAVD [CP_Y539] | 1.14 | 1.02 | 0.701 | 0.812 | 0.936 | 1.18 | 1.18 | 0.572 | 0.708 | 0.956 | 2.33 | 0.674 | 0.722 | 0.942 | 0.902 | 3.43
CPYNLYAAQLS [HGD_Y40_E42A] | 1.28 | 4.48 | 4.3 | 0.815 | 0.939 | 3.49 | 1.13 | 3.15 | 3.08 | 0.917 | 5.62 | 0.857 | 6.42 | 0.895 | 0.672 | 0.603
TCRPPYYHRNC [HGD_Y333_F329C] | 0.243 |  |  | 0.398 | 0.493 | 0.233 | 0.713 | 0.093 | 0.218 | 0.162 | 0.235 | 0.197 | 0.251 | 1.76 | 3.31 | 1.01
